We go through one molecule from article PMC8792015, “The MuvB complex binds and stabilizes nucleosomes downstream of the transcription start site of cell-cycle dependent genes”.

In the data set the target is MuvB complex (LIN9 94-542, LIN37, LIN52, LIN54 504-749, RBAP48) (Homo sapiens, UniProt Q5TKA1;Q96GY3;Q52LA3;Q6MZP7;Q09028 94-542;1-246;1-112;504-749;1-425). Kind of data set: fluorescence polarization; Kd value only in figure table; FP nucleosomes/601: 50 mM Tris pH 7.5, 150 mM NaCl, 1 mM DTT, 0.1% Tween-20, 20 nM probe (stated for peptide); FP TTK: 20 nM DNA, 20 mM Tris pH 8.0, 150 mM NaCl, 0.1% Tween-20; temperature not stated. The note with it: protein: recombinant; tags: GST/Strep/His tags removed by TEV; copies: 1;1;1;1;1; label: fluorescein. In general terms: Polarisation of emitted light reports the rotation of a fluorescent probe.

B1: TTK promoter 40-bp fragment (dsDNA)
DNA 1: GTGATAGCGACGGGGAAATTCAAACGTGTTTGCGGAAAGG
DNA 2: CCTTTCCGCAAACACGTTTGAATTTCCCCGTCGCTATCAC
On to B1, for which the binding result is on record as “binds”.
